According to US20220403048A1, “BINDING MOLECULES TO ARGINASE II [ARG2]” (Cancer Research Technology Limited, priority 2019, published 2022):

Tests used:
human ARG2 = target: T1, human ARG2 (Homo sapiens, UniProt P78540, E275H/R327K); experiment: Bio-Layer Interferometry (OctetRED) binding kinetics, human ARG2
T1 construct: His10 (after a GGG linker) (C); made in house; host or cells: E. coli BL21 (DE3)
T1 sequence (P78540 23-354 E275H/R327K): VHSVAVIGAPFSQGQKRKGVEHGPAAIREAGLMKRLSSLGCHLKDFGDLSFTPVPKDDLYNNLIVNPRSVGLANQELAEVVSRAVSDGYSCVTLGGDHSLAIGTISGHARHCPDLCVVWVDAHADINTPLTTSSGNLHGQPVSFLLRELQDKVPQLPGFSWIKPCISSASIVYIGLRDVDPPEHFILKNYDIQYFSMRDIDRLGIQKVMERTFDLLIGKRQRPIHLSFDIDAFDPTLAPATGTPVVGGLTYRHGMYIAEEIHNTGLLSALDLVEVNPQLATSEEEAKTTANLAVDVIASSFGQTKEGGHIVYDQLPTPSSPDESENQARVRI
Source text: (§1) The OctetRED (Pall ForteBio) instrument was used to assess the kinetic parameters of the interactions between C0020187 and recombinantly produced human ARG2, cynomolgus ARG2 and human ARG1. The Octet biosensor uses an optical analytical technique that analyses the interference pattern of white light reflected from two surfaces: a layer of immobilised protein on the sensor tip, and an internal reference layer. Any changes in binding at the biosensor tip result in a shift in interference pattern, which can be measured in real time. Molecules associating with or dissociating from ligands at the biosensor tip shift the interference pattern and generate a response on the Octet system which is recorded by the acquisition software.
(§2) Typically, a defined concentration of the analyte species is brought into contact with the coupled ligand and any binding is detected as an increased in signal (association phase). This is followed by a period of buffer rinse, during which dissociation of the analyte species from the surface immobilised ligand can be observed as a decrease in signal (dissociation phase). Repetition of this with a range of analyte concentrations provides data for the analysis of binding kinetics.
(§3) An Octet Kinetics Buffer (PBS containing 0.01% BSA and 0.002% Tween20) is typically used as the diluent buffer for the analyte samples and as the flow buffer during the dissociation phase. The experimental data is recorded over time as shift in interference pattern (nm) over time, which is directly proportional to the optical thickness at the biosensor tip, which in turn is an approximate measure of the mass of analyte bound. The proprietary Octet Data Analysis software package can then be used to process data and fit binding models to the data sets. Returned association (ka, M^−1 s^−1) and dissociation (kd, s^−1) rate constants allow calculation of dissociation (KD, M) affinity constants.
(§4) The affinity of binding between the Fab of C0020187 and human ARG2, cynomolgus ARG2 and human ARG1 was estimated using assays in which the biotinylated ARG antigen was captured on a streptavidin sensor tip. A fresh sensor tip was used for each measurement and no regeneration was used. A series of dilutions of the C0020187 Fab (3.25-240 nM) were individually placed in contact with the ligand surface for a sufficient amount of time to observe sensorgrams that could be fitted to an appropriate binding model with confidence (typically 5 minutes), followed by an appropriate length of dissociation time (typically 10 minutes). Blank reference (0 nM Fab) data were subtracted from each dataset to reduce the impact of any buffer artefacts or non-specific binding effects. An appropriate binding model was then fitted simultaneously to the data from each analyte titration using the Octet Evaluation software.
(§5) Example results for C0020187 are shown in Table 9, showing the association rate constants (ka), dissociation rate constants (kd) and dissociation constants (KD). These parameters were derived from a 1:1 binding fit to the data.
(§6) The affinities of the affinity-matured antibodies to human ARG2 were measured on the OctetRED system as described in section 1.15 using the streptavidin capture method. Typically, an analyte titration range of 1.8 to 120 nM was used.
The affinities of the second-generation antibodies to human ARG2 were measured on the OctetRED system. A screening assay which stably captures His-tagged ARG2 as the ligand on an anti-His surface was utilised to screen the second-generation candidates as Fabs at an analyte range of 1.8 to 120 nM, with an association time of 5 minutes and a dissociation time of 10 minutes. Sensors were regenerated using 10 mM glycine pH 1.5 after each cycle. Based on this assay, six candidates with estimated affinities in the sub-nanomolar range were identified, and they were further profiled using an extended assay which is more suitable for antibodies of high affinities. […]

cynomolgus ARG2 = experiment: Bio-Layer Interferometry (OctetRED) binding kinetics, cynomolgus ARG2; details: cyno ARG2 ligand
Source text: as §1, §2, §3, §4, §5, §6
The affinities of some of these antibodies to cynomolgus ARG2 were determined using the same assay, and the derived kinetic parameters are shown in Table 21.

human ARG1 = target: T2, human ARG1 (Homo sapiens, UniProt P05089); experiment: Bio-Layer Interferometry (OctetRED) binding, human ARG1; details: Fab analyte up to 120 nM, screening assay on anti-His surface
T2 construct: Avi tag (N); His10 (after a GGG linker) (C); made in house; host or cells: E. coli BL21 (DE3)
T2 sequence (P05089 with tags, fused parts or gaps): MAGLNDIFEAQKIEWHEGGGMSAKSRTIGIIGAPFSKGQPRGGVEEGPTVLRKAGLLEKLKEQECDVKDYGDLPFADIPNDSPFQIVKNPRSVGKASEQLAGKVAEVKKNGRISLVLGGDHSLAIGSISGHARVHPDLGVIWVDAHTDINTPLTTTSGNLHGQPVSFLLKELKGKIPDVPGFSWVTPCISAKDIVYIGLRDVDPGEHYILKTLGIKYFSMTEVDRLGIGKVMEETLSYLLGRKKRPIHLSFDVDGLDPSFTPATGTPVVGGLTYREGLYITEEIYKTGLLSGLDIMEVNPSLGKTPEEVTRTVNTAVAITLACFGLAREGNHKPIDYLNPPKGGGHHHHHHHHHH
Description: as §4
(§7) The binding of affinity-matured antibodies to human ARG1 was also tested on the OctetRED system using a screening assay which stably captures […] as the ligand on an anti-His surface. The Fabs were typically tested in an analyte range of 1.8 to 120 nM, with an association time of 5 minutes and a dissociation time of 10 minutes. Sensors were regenerated using 10 mM glycine pH 1.5 after each cycle.
as §7, with “Binding” for “The binding”, “the second-generation” for “affinity-matured”, “ARG” for “ARG1”, “were” for “were typically”, “as” for “in an”, “up” for “range of 1.8”

[1] = second-generation Fab, extended assay: association 10 min, dissociation 40 min, 0.47 to 30 nM, streptavidin surface with bio-ARG2
[2] = second-generation Fab, same extended assay
[3] = Fab as analyte, streptavidin capture, analyte 1.8 to 120 nM, affinity-matured antibodies
[4] = Fab as analyte, affinity-matured antibodies

Sequence of cynomolgus ARG2 (as listed by the source): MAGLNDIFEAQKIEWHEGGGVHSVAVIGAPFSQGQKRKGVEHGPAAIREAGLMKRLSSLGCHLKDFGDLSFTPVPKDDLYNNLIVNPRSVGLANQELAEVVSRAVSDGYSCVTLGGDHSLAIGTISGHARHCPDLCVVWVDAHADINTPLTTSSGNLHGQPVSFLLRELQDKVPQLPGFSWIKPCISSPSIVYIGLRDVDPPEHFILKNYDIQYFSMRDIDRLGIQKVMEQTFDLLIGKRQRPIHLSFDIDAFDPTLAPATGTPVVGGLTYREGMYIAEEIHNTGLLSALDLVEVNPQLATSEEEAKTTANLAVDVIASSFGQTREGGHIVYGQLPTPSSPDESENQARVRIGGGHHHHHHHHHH

B1: C0021158 IgG: anti-ARG2 antibody, VH SEQ ID NO: 282, VL SEQ ID NO: 287; IgG and Fab versions carry these sequences (antibody, listed as Homo sapiens, V domains shown)
VH: EVQLLESGGGLVQPGGSLRLSCAASGFTFRYEVAAWVRQAPGKGLEWVSAISGPIPKGYYADSVKGRFTISRDNSKNTLYLQMNSLRAEDTAVYYCARLRADLGLYMDLWGRGTLVTVSS
VL: QSVLTQPPSVSAAPGQKVTISCSGSSSNIGNHYVSWYQQLPGTAPKLLIYDNSERTAGVPDRFSGSKSGTSATLGITGLQTGDEADYYCGTWDELTSNLVFGGGTKLTVL
modifications: C0021158 IgG
ka (human ARG2; [1]): 262000 M⁻¹ s⁻¹ | kd (human ARG2; [1]): 4.54e-05 s⁻¹ | ka (cynomolgus ARG2; [2]): 429000 M⁻¹ s⁻¹ | kd (cynomolgus ARG2; [2]): 4.64e-05 s⁻¹ | Results, binding to human ARG1 (BLI) (human ARG1): No binding observed

B2: C0021061: anti-ARG2 antibody, first generation lead, VH SEQ ID NO: 62, VL SEQ ID NO: 67 (antibody, listed as Homo sapiens, V domains shown)
VH: EVQLLESGGGLVQPGGSLRLSCAASGFTFSSYAMSWVRQAPGKGLEWVSAKPTDAGSTYYADSVKGRFTISRDNSKNTLYLQMNSLRAEDTAVYYCARLRADLGLYMDLWGRGTLVTVSS
VL: QSVLTQPPSVSAAPGQKVTISCSGSSSNIGNHYVSWYQQLPGTAPKLLIYNTVYPKSGIPDRFSGSKSGTSATLGITGLQTGDEADYYCGTWDSSLSALVFGGGTKLTVL
modifications: C0021061
ka (human ARG2; [3]): 271000 M⁻¹ s⁻¹ | kd (human ARG2; [3]): 0.000351 s⁻¹ | ka (cynomolgus ARG2; [4]): 310000 M⁻¹ s⁻¹ | kd (cynomolgus ARG2; [4]): 0.000296 s⁻¹ | Results, binding to human ARG1 (BLI) (human ARG1): No binding observed

B3: C0021139: anti-ARG2 antibody, VH SEQ ID NO: 212, VL SEQ ID NO: 217 (antibody, listed as Homo sapiens, V domains shown)
VH: EVQLLESGGGLVQPGGSLRLSCAASGFTFQYDYQVWVRQAPGKGLEWVSAISGSGGSTYYADSVKGRFTISRDNSKNTLYLQMNSLRAEDTAVYYCARLRADLGLYMDLWGRGTLVTVSS
VL: QSVLTQPPSVSAAPGQKVTISCSGSSSNIGNHYVSWYQQLPGTAPKLLIYDNSERTSGIPDRFSGSKSGTSATLGITGLQTGDEADYYCGTWDELTSNLVFGGGTKLTVL
modifications: C0021139
ka (human ARG2; [3]): 198000 M⁻¹ s⁻¹ | kd (human ARG2; [3]): 0.000871 s⁻¹ | ka (cynomolgus ARG2; [4]): 275000 M⁻¹ s⁻¹ | kd (cynomolgus ARG2; [4]): 0.000724 s⁻¹ | Results, binding to human ARG1 (BLI) (human ARG1): No binding observed

B4: C0021092: anti-ARG2 antibody, VH SEQ ID NO: 92, VL SEQ ID NO: 97 (antibody, listed as Homo sapiens, V domains shown)
VH: EVQLLESGGGLVQPGGSLRLSCAASGFTFSRYAMSWVRQAPGKGLEWVSAHTHSPGSTYYADSVKGRFTISRDNSKNTLYLQMNSLRAEDTAVYYCARLRADLGLYMDLWGRGTLVTVSS
VL: QSVLTQPPSVSAAPGQKVTISCSGSSSNIGNHYVSWYQQLPGTAPKLLIYNSVARPSGIPDRFSGSKSGTSATLGITGLQTGDEADYYCGTWDSSLSALVFGGGTKLTVL
modifications: C0021092
ka (human ARG2; [3]): 280000 M⁻¹ s⁻¹ | kd (human ARG2; [3]): 0.000755 s⁻¹ | ka (cynomolgus ARG2; [4]): 354000 M⁻¹ s⁻¹ | kd (cynomolgus ARG2; [4]): 0.000726 s⁻¹ | Results, binding to human ARG1 (BLI) (human ARG1): No binding observed

B5: C0021133: anti-ARG2 antibody, VH SEQ ID NO: 192, VL SEQ ID NO: 197 (antibody, listed as Homo sapiens, V domains shown)
VH: EVQLLESGGGLVQPGGSLRLSCAASGFTFRYDHHVWVRQAPGKGLEWVSAISGSGGSTYYADSVKGRFTISRDNSKNTLYLQMNSLRAEDTAVYYCARLRADLGLYMDLWGRGTLVTVSS
VL: QSVLTQPPSVSAAPGQKVTVSCSGSSSNIGNHYVSWYQQLPGTAPKLLIYDTTVLSSGIPDRFSGSKSGTSATLGITGLQTGDEADYYCGTWDELTSNLVFGGGTKLTVL
modifications: C0021133
ka (human ARG2; [3]): 219000 M⁻¹ s⁻¹ | kd (human ARG2; [3]): 0.000449 s⁻¹ | ka (cynomolgus ARG2; [4]): 328000 M⁻¹ s⁻¹ | kd (cynomolgus ARG2; [4]): 0.000549 s⁻¹ | Results, binding to human ARG1 (BLI) (human ARG1): No binding observed

B6: C0021022: anti-ARG2 antibody, VH SEQ ID NO: 42, VL SEQ ID NO: 47 (antibody, listed as Homo sapiens, V domains shown)
VH: EVQLLESGGGLVQPGGSLRLSCAASGFTFSSYAMSWVRQAPGKGPEWVSAISGFSPYYADSVKGRFTISRDNSKNTLYLQMNSLRAEDTAVYYCARLRADLGLYMDLWGRGTLVTVSS
VL: QSVLTQPPSVSAAPGQKVTISCSGSSSNIGNHYVSWYQQLPGTAPKLLIYDNSERPSGIPDRFSGSKSGTSATLGITGLQTGDEADYYCGTWDSSLSALVFGGGTKLTVL
modifications: C0021022
ka (human ARG2; [3]): 412000 M⁻¹ s⁻¹ | kd (human ARG2; [3]): 0.00112 s⁻¹ | ka (cynomolgus ARG2; [4]): 706000 M⁻¹ s⁻¹ | kd (cynomolgus ARG2; [4]): 0.00117 s⁻¹ | Results, binding to human ARG1 (BLI) (human ARG1): No binding observed

B7: C0021065: anti-ARG2 antibody, VH SEQ ID NO: 72, VL SEQ ID NO: 77 (antibody, listed as Homo sapiens, V domains shown)
VH: EVQLLESGGGLVQPGGSLRLSCAASGFTFSSYAMSWVRQAPGKGPEWVSAISGFSPYYADSVKGRFTISRDNSRNTLYLQMNSLRAEDTAVYYCARLRADLGLYMDLWGRGTLVTVSS
VL: QSVLTQPPSVSAAPGQKVTISCSGSSSNIGNHYVSWYQQLPGTAPKLLIYDTDHMASGIPDRFSGSKSGTSATLGITGLQTGDEADYYCGTWDSSLSALVFGGGTKLTVL
modifications: C0021065
ka (human ARG2; [3]): 409000 M⁻¹ s⁻¹ | kd (human ARG2; [3]): 0.000665 s⁻¹ | ka (cynomolgus ARG2; [4]): 617000 M⁻¹ s⁻¹ | kd (cynomolgus ARG2; [4]): 0.000782 s⁻¹ | Results, binding to human ARG1 (BLI) (human ARG1): No binding observed
